Data published in patent US20140274782A1, “AFFINITY REAGENTS AND METHODS FOR DETECTION, PURIFICATION, AND PROTEOMIC ANALYSIS OF METHYLATED PROTEINS” (The Board of Trustees of the Leland Stanford Junior …, priority 2013, published 2014).
One block for each molecule: values may come before it.

Legend:
G9a and GLP = molecular target: T1, G9a and GLP (Homo sapiens, UniProt Q96KQ7+Q9H9B1); test: Triple SILAC pull-down after UNC0638 treatment of 293T cells, DMSO/UNC0638 ratio of protein captured by 3×MBT; format: cell-based; design: endogenous in cells; host or cells: HEK 293T; settings: for Relative to UNC0638 UNC Heavy / Relative to UNC0638 UNC Light: SILAC ratio DMSO/UNC0638 of protein pulled down with 3xMBT; for Relative to UNC0638 UNC Heavy: UNC0638 in heavy SILAC media; for Relative to UNC0638 UNC Light: UNC0638 in light SILAC media; for Relative to UNC0638 Average: average of UNC Light and UNC Heavy experiments;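 for all read-outs here: mass spectrometry (Q-Exactive) SILAC quantitation, DMSO/UNC0638 ratio computed after subtracting 3×MBTD355N mutant pull-down background, only proteins with at least twofold 3×MBT over mutant signal considered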
T1 sequence (Q96KQ7 2-1210 limits assumed): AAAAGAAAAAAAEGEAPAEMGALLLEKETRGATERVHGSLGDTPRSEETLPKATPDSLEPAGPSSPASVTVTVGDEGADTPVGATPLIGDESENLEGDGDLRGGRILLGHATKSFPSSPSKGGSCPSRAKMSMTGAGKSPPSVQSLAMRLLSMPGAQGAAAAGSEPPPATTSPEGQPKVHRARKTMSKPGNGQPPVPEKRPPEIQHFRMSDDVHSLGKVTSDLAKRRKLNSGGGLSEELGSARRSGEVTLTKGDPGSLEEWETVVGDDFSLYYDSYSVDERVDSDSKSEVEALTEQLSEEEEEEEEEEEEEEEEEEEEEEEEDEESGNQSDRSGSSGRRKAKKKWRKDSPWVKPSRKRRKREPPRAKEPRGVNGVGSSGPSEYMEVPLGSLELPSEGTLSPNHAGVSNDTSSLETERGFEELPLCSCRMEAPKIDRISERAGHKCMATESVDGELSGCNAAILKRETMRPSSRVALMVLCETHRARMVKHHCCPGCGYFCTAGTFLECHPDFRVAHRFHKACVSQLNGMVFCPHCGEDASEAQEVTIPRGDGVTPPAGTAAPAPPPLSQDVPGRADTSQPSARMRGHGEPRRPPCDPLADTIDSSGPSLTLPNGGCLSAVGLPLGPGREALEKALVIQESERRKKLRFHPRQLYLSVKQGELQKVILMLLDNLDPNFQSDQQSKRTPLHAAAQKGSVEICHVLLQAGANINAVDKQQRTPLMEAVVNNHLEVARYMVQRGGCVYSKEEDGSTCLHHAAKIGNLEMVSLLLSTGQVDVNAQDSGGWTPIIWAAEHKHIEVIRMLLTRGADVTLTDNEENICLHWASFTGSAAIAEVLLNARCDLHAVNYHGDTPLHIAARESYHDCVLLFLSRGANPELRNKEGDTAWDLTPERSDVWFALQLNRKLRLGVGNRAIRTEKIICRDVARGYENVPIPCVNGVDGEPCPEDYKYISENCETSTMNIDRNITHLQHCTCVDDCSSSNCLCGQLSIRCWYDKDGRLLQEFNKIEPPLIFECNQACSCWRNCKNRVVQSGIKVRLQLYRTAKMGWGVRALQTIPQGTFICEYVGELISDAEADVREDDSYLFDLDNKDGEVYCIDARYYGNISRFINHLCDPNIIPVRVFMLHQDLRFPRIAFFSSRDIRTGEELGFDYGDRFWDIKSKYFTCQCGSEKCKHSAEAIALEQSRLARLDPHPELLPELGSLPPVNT
T1 sequence (Q9H9B1 2-1298 limits assumed): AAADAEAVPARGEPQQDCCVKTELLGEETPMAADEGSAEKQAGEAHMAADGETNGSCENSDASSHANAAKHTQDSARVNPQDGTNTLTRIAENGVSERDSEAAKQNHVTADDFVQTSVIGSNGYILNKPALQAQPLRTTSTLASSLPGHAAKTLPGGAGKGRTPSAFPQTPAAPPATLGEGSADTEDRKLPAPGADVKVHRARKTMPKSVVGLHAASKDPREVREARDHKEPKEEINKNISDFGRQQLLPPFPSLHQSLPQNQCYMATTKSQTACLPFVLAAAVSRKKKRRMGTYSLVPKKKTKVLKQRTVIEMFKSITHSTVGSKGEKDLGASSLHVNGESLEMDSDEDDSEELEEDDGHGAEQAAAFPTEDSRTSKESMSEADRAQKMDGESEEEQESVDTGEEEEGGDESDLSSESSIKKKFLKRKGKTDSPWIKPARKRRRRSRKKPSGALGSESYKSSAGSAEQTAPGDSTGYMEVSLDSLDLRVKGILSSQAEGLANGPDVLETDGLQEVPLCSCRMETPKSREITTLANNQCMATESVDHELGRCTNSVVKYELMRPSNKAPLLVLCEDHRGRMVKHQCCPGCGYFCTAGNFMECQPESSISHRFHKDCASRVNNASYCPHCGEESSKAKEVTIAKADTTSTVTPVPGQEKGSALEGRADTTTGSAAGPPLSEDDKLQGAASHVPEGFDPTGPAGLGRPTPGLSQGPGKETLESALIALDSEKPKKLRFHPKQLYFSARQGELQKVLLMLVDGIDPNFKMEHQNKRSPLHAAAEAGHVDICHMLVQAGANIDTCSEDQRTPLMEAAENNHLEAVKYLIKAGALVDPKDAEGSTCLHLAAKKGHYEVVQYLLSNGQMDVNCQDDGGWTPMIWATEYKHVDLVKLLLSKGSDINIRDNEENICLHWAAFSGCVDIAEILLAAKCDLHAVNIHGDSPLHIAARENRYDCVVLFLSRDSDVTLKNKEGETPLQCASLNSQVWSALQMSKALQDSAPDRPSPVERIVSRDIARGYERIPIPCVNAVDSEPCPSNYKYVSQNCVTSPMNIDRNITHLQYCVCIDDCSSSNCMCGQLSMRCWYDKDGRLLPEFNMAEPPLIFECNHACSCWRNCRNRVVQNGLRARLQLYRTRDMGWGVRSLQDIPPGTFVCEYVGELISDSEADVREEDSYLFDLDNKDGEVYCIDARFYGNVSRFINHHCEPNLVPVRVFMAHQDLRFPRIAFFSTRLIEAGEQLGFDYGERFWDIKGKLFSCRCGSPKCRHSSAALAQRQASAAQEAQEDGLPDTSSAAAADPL

3×MBT domain of L3MBTL1 = test: Triple SILAC pull-down, 3xMBT/3xMBTD355N ratio (cytoplasmic, nuclear and chromatin fractions of 293T cells); format: binding, human; settings: SILAC ratio, pull-down 3xMBT vs 3xMBTD355N; for 3xMBT/D355N UNC Heavy: experiment with UNC0638 in heavy SILAC media; for 3xMBT/D355N UNC Light: experiment with UNC0638 in light SILAC media;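 for all read-outs here: proteins quantified with MaxQuant, requiring at least two unique peptides and quantification in both label directions, normalized to the mean of proteins from a digested loading control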

Relative to UNC0638 UNC Heavy (G9a and GLP): 0.37 log base 2
Relative to UNC0638 UNC Light (G9a and GLP): 0.14 log base 2
Relative to UNC0638 Average (G9a and GLP): 0.26 log base 2
B3: MATR3 (protein, UniProt P43243 2-847, looked up)
Matrin-3: SKSFQQSSLSRDSQGHGRDLSAAGIGLLAAATQSLSMPASLGRMNQGTARLASLMNLGMSSSLNQQGAHSALSSASTSSHNLQSIFNIGSRGPLPLSSQHRGDADQASNILASFGLSARDLDELSRYPEDKITPENLPQILLQLKRRRTEEGPTLSYGRDGRSATREPPYRVPRDDWEEKRHFRRDSFDDRGPSLNPVLDYDHGSRSQESGYYDRMDYEDDRLRDGERCRDDSFFGETSHNYHKFDSEYERMGRGPGPLQERSLFEKKRGAPPSSNIEDFHGLLPKGYPHLCSICDLPVHSNKEWSQHINGASHSRRCQLLLEIYPEWNPDNDTGHTMGDPFMLQQSTNPAPGILGPPPPSFHLGGPAVGPRGNLGAGNGNLQGPRHMQKGRVETSRVVHIMDFQRGKNLRYQLLQLVEPFGVISNHLILNKINEAFIEMATTEDAQAAVDYYTTTPALVFGKPVRVHLSQKYKRIKKPEGKPDQKFDQKQELGRVIHLSNLPHSGYSDSAVLKLAEPYGKIKNYILMRMKSQAFIEMETREDAMAMVDHCLKKALWFQGRCVKVDLSEKYKKLVLRIPNRGIDLLKKDKSRKRSYSPDGKESPSDKKSKTDGSQKTESSTEGKEQEEKSGEDGEKDTKDDQTEQEPNMLLESEDELLVDEEEAAALLESGSSVGDETDLANLGDVASDGKKEPSDKAVKKDGSASAAAKKKLKKVDKIEELDQENEAALENGIKNEENTEPGAESSENADDPNKDTSENADGQSDENKDDYTIPDEYRIGPYQPNVPVGIDYVIPKTGFYCKLCSLFYTNEEVAKNTHCSSLPHYQKLKKFLNKLAEERRQKKET
3xMBT/D355N UNC Heavy (3×MBT domain of L3MBTL1): 1.72 log base 2
3xMBT/D355N UNC Light (3×MBT domain of L3MBTL1): 1.77 log base 2

Relative to UNC0638 UNC Heavy (G9a and GLP): 0.28 log base 2
Relative to UNC0638 UNC Light (G9a and GLP): 0.33 log base 2
Relative to UNC0638 Average (G9a and GLP): 0.30 log base 2
B4: DNAJC2 (protein, UniProt Q99543 1-621, looked up)
DnaJ homolog subfamily C …: MLLLPSAADGRGTAITHALTSASTLCQVEPVGRWFEAFVKRRNRNASASFQELEDKKELSEESEDEELQLEEFPMLKTLDPKDWKNQDHYAVLGLGHVRYKATQRQIKAAHKAMVLKHHPDKRKAAGEPIKEGDNDYFTCITKAYEMLSDPVKRRAFNSVDPTFDNSVPSKSEAKDNFFEVFTPVFERNSRWSNKKNVPKLGDMNSSFEDVDIFYSFWYNFDSWREFSYLDEEEKEKAECRDERRWIEKQNRATRAQRKKEEMNRIRTLVDNAYSCDPRIKKFKEEEKAKKEAEKKAKAEAKRKEQEAKEKQRQAELEAARLAKEKEEEEVRQQALLAKKEKDIQKKAIKKERQKLRNSCKTWNHFSDNEAERVKMMEEVEKLCDRLELASLQCLNETLTSCTKEVGKAALEKQIEEINEQIRKEKEEAEARMRQASKNTEKSTGGGGNGSKNWSEDDLQLLIKAVNLFPAGTNSRWEVIANYMNIHSSSGVKRTAKDVIGKAKSLQKLDPHQKDDINKKAFDKFKKEHGVVPQADNATPSERFEGPYTDFTPWTTEEQKLLEQALKTYPVNTPERWEKIAEAVPGRTKKDCMKRYKELVEMVKAKKAAQEQVLNASRAKK
3xMBT/D355N UNC Heavy (3×MBT domain of L3MBTL1): 2.18 log base 2
3xMBT/D355N UNC Light (3×MBT domain of L3MBTL1): 3.04 log base 2

More lines, now with the values behind:

B1: TXN (protein, UniProt P10599 2-105, looked up)
Thioredoxin: VKQIESKTAFQEALDAAGDKLVVVDFSATWCGPCKMIKPFFHSLSEKYSNVIFLEVDVDDCQDVASECEVKCMPTFQFFKKGQKVGEFSGANKEKLEATINELV
Relative to UNC0638 UNC Heavy (G9a and GLP): 0.14 log base 2
Relative to UNC0638 UNC Light (G9a and GLP): 0.38 log base 2
Relative to UNC0638 Average (G9a and GLP): 0.26 log base 2
3xMBT/D355N UNC Heavy (3×MBT domain of L3MBTL1): 1.75 log base 2
3xMBT/D355N UNC Light (3×MBT domain of L3MBTL1): 1.93 log base 2

B2: POLDIP3 (protein, UniProt Q9BY77 2-421, looked up)
Polymerase delta-interacting …: ADISLDELIRKRGAAAKGRLNARPGVGGVRSRVGIQQGLLSQSTRTATFQQRFDARQKIGLSDARLKLGVKDAREKLLQKDARFRIKGKVQDAREMLNSRKQQTTVPQKPRQVADAREKISLKRSSPAAFINPPIGTVTPALKLTKTIQVPQQKAMAPLHPHPAGMRINVVNNHQAKQNLYDLDEDDDGIASVPTKQMKFAASGGFLHHMAGLSSSKLSMSKALPLTKVVQNDAYTAPALPSSIRTKALTNMSRTLVNKEEPPKELPAAEPVLSPLEGTKMTVNNLHPRVTEEDIVELFCVCGALKRARLVHPGVAEVVFVKKDDAITAYKKYNNRCLDGQPMKCNLHMNGNVITSDQPILLRLSDSPSMKKESELPRRVNSASSSNPPAEVDPDTILKALFKSSGASVTTQPTEFKIKL
Relative to UNC0638 UNC Heavy (G9a and GLP): 0.39 log base 2
Relative to UNC0638 UNC Light (G9a and GLP): 0.14 log base 2
Relative to UNC0638 Average (G9a and GLP): 0.26 log base 2
3xMBT/D355N UNC Heavy (3×MBT domain of L3MBTL1): 2.51 log base 2
3xMBT/D355N UNC Light (3×MBT domain of L3MBTL1): 2.76 log base 2
